Results taken from US20250388696A1 (NAVIGO PROTEINS, published 2025).
Where no end group is shown, it is not given here.

T1: hFAP-Fc (human, UniProt Q12884 26-760, limits assumed)
T1 construct: also called Fc-tagged target (FAP)
T1 sequence (looked up): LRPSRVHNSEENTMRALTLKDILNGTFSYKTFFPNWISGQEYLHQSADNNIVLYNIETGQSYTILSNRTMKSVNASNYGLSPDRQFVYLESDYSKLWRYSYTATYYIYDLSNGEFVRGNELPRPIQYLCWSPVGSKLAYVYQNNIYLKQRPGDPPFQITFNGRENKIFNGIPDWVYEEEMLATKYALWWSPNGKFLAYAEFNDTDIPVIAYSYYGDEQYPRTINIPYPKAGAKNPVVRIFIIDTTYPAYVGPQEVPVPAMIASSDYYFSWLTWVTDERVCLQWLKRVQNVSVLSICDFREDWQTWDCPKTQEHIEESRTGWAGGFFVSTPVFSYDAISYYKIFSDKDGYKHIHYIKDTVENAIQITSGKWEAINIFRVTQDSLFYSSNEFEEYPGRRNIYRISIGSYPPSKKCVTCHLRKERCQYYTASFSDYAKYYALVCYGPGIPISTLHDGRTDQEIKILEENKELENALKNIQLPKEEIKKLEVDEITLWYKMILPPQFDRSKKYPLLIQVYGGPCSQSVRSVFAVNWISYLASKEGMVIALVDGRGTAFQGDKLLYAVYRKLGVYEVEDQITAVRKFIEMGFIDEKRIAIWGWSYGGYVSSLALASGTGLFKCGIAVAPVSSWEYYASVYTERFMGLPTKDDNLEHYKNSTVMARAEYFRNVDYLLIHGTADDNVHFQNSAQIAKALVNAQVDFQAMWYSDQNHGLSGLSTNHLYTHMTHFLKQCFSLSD

T2: human fibroblast activation protein (hFAP) expressed on the surface of HEK293-hFAP cells (human, UniProt Q12884 1-760)
T2 construct: whole, on cells; FAP overexpressing HEK293 cell line
T2 sequence (looked up): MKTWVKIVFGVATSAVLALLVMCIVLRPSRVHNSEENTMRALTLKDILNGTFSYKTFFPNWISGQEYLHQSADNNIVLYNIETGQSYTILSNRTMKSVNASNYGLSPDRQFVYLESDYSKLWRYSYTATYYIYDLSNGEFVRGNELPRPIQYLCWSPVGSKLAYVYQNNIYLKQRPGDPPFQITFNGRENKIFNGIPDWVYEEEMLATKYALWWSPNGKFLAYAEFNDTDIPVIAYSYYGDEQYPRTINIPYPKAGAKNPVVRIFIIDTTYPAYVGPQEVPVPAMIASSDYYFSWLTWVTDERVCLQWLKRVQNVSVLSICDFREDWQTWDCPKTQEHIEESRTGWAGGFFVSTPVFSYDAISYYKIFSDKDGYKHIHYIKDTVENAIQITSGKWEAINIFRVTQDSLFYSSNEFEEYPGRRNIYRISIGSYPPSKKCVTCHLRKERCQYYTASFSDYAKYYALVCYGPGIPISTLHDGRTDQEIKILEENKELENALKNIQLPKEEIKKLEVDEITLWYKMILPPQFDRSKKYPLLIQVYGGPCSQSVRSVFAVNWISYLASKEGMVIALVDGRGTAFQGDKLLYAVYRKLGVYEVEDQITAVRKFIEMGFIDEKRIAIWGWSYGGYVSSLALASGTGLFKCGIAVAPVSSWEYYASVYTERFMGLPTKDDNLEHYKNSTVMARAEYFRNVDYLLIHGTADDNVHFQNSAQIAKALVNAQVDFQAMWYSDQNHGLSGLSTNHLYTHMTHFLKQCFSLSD


Legend:
human serum albumin [1] = target: T3, human serum albumin (human, UniProt P02768 25-609); assay: SPR, HSA immobilised on the chip, pH 7.3, 1:1 Langmuir fit
T3 construct: also called HSA
Experimental: (§1) Recombinant protein A, HSA, MSA or target (either ED-B or Her2) was immobilized on a High Capacity Amine sensor chip (Bruker) after NHS/EDC activation with a Sierra SPR-32 system (Bruker). The chip was equilibrated with SPR running buffer (PBS 0.05%, Tween pH 7.3). Injection of ethanolamine after target immobilization was used to block free NHS groups. To determine the binding of fusion proteins to FAP, the Fc-tagged target was injected with 60 or 30 nM to Protein A coupled spots followed by the injection of fusion proteins.
(§2) Binding proteins were applied to the chip in serial dilutions with a flow rate of 30 μl/min. Upon binding, analyte accumulated on the surface increasing the refractive index. This change in the refractive index was measured in real time and plotted as response or resonance units versus time. The association was performed for 120 seconds and the dissociation for 180 seconds. After each run, the chip surface was regenerated with 30 μl regeneration buffer (10 mM glycine pH 2.0 or pH 1.5) and equilibrated with running buffer. Binding studies were carried out using the Sierra SPR-32 system (Bruker); data evaluation was operated via the Sierra Analyser software, provided by the manufacturer, by the use of the Langmuir 1:1 model (RI=0).

hFAP-Fc = target: T1, hFAP-Fc; assay: SPR, Fc-tagged FAP captured on immobilised protein A, pH 7.3, 1:1 Langmuir fit
Experimental: as §1, §2

human serum albumin [2] = target: T3, human serum albumin; assay: SPR, HSA immobilised
Experimental: as §1, §2

mouse serum albumin = target: T4, mouse serum albumin (mouse, UniProt P07724 25-608); assay: SPR, MSA immobilised
T4 construct: also called MSA
Experimental: as §1, §2

[3] = target: T2, human fibroblast activation protein …; assay: flow cytometry on HEK293-hFAP cells
Experimental: Fusion proteins were tested with a concentration of 1 μM, 100 nM, 10 nM, 1 nM or 0.1 nM on hFAP expressing HEK293-hFAP-cells. To exclude an unspecific binding, fusion proteins were also incubated on control cells HEK293-pEntry with the same concentrations. […] Supernatants were removed after 45 min, cells were washed in blocking buffer and 100 μl/well rabbit anti-StrepTag antibody (GenScript; A00626), 1:300 diluted in FACS blocking buffer were added. […] Flow cytometry measurement was conducted on the Guava easyCyte 5HT device from Merck-Millipore at excitation wavelength 488 nm and emission wavelength 525/30 nm.

T3 sequence (P02768 25-609 limits assumed): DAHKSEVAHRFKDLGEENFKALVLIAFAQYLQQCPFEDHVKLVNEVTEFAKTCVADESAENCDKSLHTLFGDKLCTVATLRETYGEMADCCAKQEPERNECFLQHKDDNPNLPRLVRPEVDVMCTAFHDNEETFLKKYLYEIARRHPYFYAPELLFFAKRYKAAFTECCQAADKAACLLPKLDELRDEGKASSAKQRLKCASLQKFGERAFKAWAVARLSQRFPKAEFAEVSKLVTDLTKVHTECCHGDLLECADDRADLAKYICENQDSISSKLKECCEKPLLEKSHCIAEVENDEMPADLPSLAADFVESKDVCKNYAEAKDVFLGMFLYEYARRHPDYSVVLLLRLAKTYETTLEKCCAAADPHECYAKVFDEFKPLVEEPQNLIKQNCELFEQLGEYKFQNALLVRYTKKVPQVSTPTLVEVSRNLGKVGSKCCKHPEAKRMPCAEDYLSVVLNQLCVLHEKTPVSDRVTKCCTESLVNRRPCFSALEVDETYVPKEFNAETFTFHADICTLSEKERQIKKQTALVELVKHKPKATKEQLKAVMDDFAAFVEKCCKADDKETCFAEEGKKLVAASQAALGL

| Kd (human serum albumin [1]) [nM] | Kd (hFAP-Fc) [nM] | Kd (human serum albumin [2]) [nM] | Kd (mouse serum albumin) [nM] | Binder | also measured |
| --- | --- | --- | --- | --- | --- |
| 7.3 | 4.4 | – | – | fusion protein 218708 (designed binder, not shown: small tags and cut ends, also called CID 218708) chain (part 1 of 2): not shown chain (part 2 of 2): LAEAKVLALKELDKYGISNYYKNLINNAKTVEGVKALKEAIVAALP | – |
| – | – | ≥ 100 | ≥ 100 | LAEAKVLALKELDKYGISNYYKNLINNAKTIESVKALKDEIVAA (designed binder, not shown: small tags and cut ends, also: part of fusion protein, targeting moiety, linker, tag and order not given here) [Fusion proteins with albumin binding domain c42 (SEQ ID NO: 34)] | – |
| – | – | ≥ 100 | ≥ 100 | LAEAKVLALKELDKYGISNGYKNLINNAKTIEGVKALKDEIVAA (designed binder, not shown: small tags and cut ends, also: part of fusion protein, targeting moiety, linker, tag and order not given here) [Fusion proteins with albumin binding domain c45 (SEQ ID NO: 35)] | – |
| – | – | ≥ 100 | ≥ 100 | LAEAKVLALKELDKYGISNYGKNLINNAKTIEGVEALKDAILAA (designed binder, not shown: small tags and cut ends, also: part of fusion protein, targeting moiety, linker, tag and order not given here) [Fusion proteins with albumin binding domain c50 (SEQ ID NO: 38)] | – |
| – | – | ≥ 100 | ≥ 100 | LAEAKVLALKELDKYGISNDYKNLINNAKTIEGVEALKDAILAA (designed binder, not shown: small tags and cut ends, also: part of fusion protein, targeting moiety, linker, tag and order not given here) [Fusion proteins with albumin binding domain c49 (SEQ ID NO: 37)] | – |
| 5 | 4 | – | – | fusion protein 218692 (designed binder, not shown: small tags and cut ends, also called CID 218692) chain (part 1 of 2): not shown chain (part 2 of 2): LAEAKVLAIKELDKAGISNYYFNLINNAKTVEGVKDLKAQIVAA | – |
| – | – | – | – | fusion protein 218691 (designed binder, not shown: small tags and cut ends, also called CID 218691) chain (part 1 of 2): not shown chain (part 2 of 2): LAEAKVLALKELDKYGISNYYKNLINNAKTIEGVKALKAQIVAA | binding result [3]: binds |
| 5.9 | 5.8 | – | – | fusion protein 218703 (designed binder, not shown: small tags and cut ends, also called CID 218703) chain (part 1 of 2): not shown chain (part 2 of 2): LAEAKVLALKELDKYGISNYYKNLINNAKTIEGVKALKAQIVAA | – |
| – | – | – | – | fusion protein 218699 (designed binder, not shown: small tags and cut ends, also called CID 218699) chain (part 1 of 2): not shown chain (part 2 of 2): LAEAKVLALKELDKYGISNYYKNLINNAKTVEGVKALKEAIVAA | binding result [3]: binds |
| 0.9 | 3.4 | – | – | fusion protein 218687 (designed binder, not shown: small tags and cut ends, also called CID 218687) chain (part 1 of 2): not shown chain (part 2 of 2): LAEAKVLALKELDKYGISNYYKNLINNAKTVEGVKALKEAIVAA | – |
| – | – | – | – | fusion protein 218704 (designed binder, not shown: small tags and cut ends, also called CID 218704) chain (part 1 of 2): not shown chain (part 2 of 2): LAEAKVLAIKELDKAGISNYYFNLINNAKTVEGVKDLKAQIVAA | binding result [3]: binds |
